Variants at the floor of the assay were thinned out.

The results in this text go back to the RNAGym collection of RNA variant scans (doi:10.1073/pnas.2313332121).

B1: TPR 5TU (parent)
chain: GGAUCUUCUCGAUCUAACAAAAAAGACAAAUCUGCCACAAAGCUUGAGAGCAUCUUCGGAUGCAGAGGCGGCAGCCUUCGGUGGCGCGAUAGCGCCAACGUUCUCAACUAUGACACGCAAAACGCGUGCUCCGUUGAAUGGAGUUUAUCAUG

In this data set the parent is B1. Put plainly: polymerase ribozyme fitness, log enrichment relative to wild type (log ratio); higher = more active; in vitro selection for triplet polymerase activity. In short, it runs like this:
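Mutant libraries were PCR-built and transcribed for each subunit of a heterodimeric triplet polymerase ribozyme and selected for one round in triplicate at −7 °C, frozen, before gel excision of extended constructs and streptavidin-bead capture. Input and output libraries were Illumina-sequenced, keeping genotypes with ≥10 input reads and ≥1 read per output. Fitness is a logarithmic ratio of genotype to wild-type enrichment, in base 2, using inverse-variance-weighted replicate averages.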
As to A21C C51U G59C G140A A142U, the “polymerase ribozyme fitness (log ratio)” value was not above -4.2.
The result for A21C A47C A60G C93A reads -1.98; that for A20U A26C C32U A64C C75G U78G C123U U134C U145C, not above -4.2.
The result for A20G G126A G136A reads 0.15; that for A20G U78G C93U A110U U135G A137G, not above -4.2.
For A19U A20U A24G G42C U55A C57A U78C G86U A119U the value was not above -4.2; for A21C A24G A28G A29U G71C G83A G124U, not above -4.2; for A20U G62C C63U C95U A122G G143A, -4.12.
A20C G83C: the “polymerase ribozyme fitness (log ratio)” value was -1.3.
For A20C U53C G59A G136C the value was -3.81; for A19U G92U U102A U146C, -2.35; for A20U G84U A120U, -2.73.
On to A20U C57G G88U A89U, for which the “polymerase ribozyme fitness (log ratio)” value was not above -4.2.
For A19U A28U G83C the value was not above -4.2; for A19U G80U, -0.442; for A19U U56A, -0.835.
The result for A20C C38U C95U A122C U134C reads -1.35; that for A21G A26U C87A C125G U135C U146C, not above -4.2.
For A20C G86C C87U G88A C95G, the “polymerase ribozyme fitness (log ratio)” value is not above -4.2.
Regarding A20C U55A, the “polymerase ribozyme fitness (log ratio)” value is -0.798.
The result for A20G C87U reads -1.06; that for A21C G34U U55A C132G U135A, not above -4.2; that for A21C G25C C36G C93G A115U U134A U146A, not above -4.2.
For A21C C125A the value was 0.331.
The result for A19U C69A A98U G140C reads not above -4.2; that for A21C A24C A52C C79A C93U A150U G152C, not above -4.2; that for A21C G58A C93U U102G C131G, not above -4.2.
As for A20U C38U C85A G86U, the “polymerase ribozyme fitness (log ratio)” value is not above -4.2.
In the case of A20C G48U G100C C116A, the “polymerase ribozyme fitness (log ratio)” value is not above -4.2.
A20G U144A: the “polymerase ribozyme fitness (log ratio)” value is -0.576.
For A21G C75U the value was 0.894.
For A21C A52C C57U A64C A66C G71U A91U G100A C103U U127G the value was not above -4.2.
For A20C G80A U82A C93U A98C the value was -2.56; for A21G G25U U56A C85U G94U C123U, -2.71.
Turning to A20C G50A C63A C85U G117U, the “polymerase ribozyme fitness (log ratio)” value was -1.09.
The result for A20U A22U G67C C79U C99G C118U reads not above -4.2.
Regarding A21C U53A C69U C125U, the “polymerase ribozyme fitness (log ratio)” value was -3.94.
The result for A20G G67U reads -2.82; that for A20U G84U A98G, -4.1; that for A21C A30U U33G A60U C85A, not above -4.2.
A20G G140U: the “polymerase ribozyme fitness (log ratio)” value was -3.41.
The result for A20U A24U G83C C93G G143A reads not above -4.2; that for A21G U55G C79G G94A C99A, not above -4.2; that for A20G A41C C54G G83U C87G A98C C116G C132U, not above -4.2.
For A21G C36G U53C the value was -3.97; for A20U U78A C95U, not above -4.2; for A21G A23G G58C G59A C85G C103A C108U, not above -4.2.
As to A20U C93G A121U A142U, the “polymerase ribozyme fitness (log ratio)” value is not above -4.2.
The result for A20G A23C U53A G92A C93A C95U G141A reads not above -4.2.
For A21G G94A A97G A137G the value was -2.22; for A20U A47G A89U C105U, -2.65.
Consider A21C A23C G80A U82G G86U A137G, for which the “polymerase ribozyme fitness (log ratio)” value was not above -4.2.
For A19U A23U U61A C99A U101G G136C A137C U145A the value was not above -4.2; for A21G G42A C93U A110C, not above -4.2.
Regarding A20U U77G C96U C99U, the “polymerase ribozyme fitness (log ratio)” value is not above -4.2.
The result for A21G A29C G88A G92C C96G U102G A107U reads not above -4.2.
For A21C G83U C116G the value was -0.153; for A20C A41U G50A U90A C93U, not above -4.2.
Regarding A20C A40U C95U, the “polymerase ribozyme fitness (log ratio)” value was -0.74.
Regarding A20G A91U G124U, the “polymerase ribozyme fitness (log ratio)” value was not above -4.2.
For A21C A39U C95G A113U C149U A150G the value was not above -4.2.
For A20G A24G U53A A91G A97U U109C U130A G141A A142C the value was not above -4.2; for A19U A20U C57G G58A G88U G92C C125A C131U U148C C149A, not above -4.2.
The result for A21C A41C C51U C85A reads -3.05; that for A19U A23G, -3.44.
As to A21G U31G C38U A73C C87A C96U, the “polymerase ribozyme fitness (log ratio)” value is not above -4.2.
For A19U C79U G83A G88C the value was not above -4.2; for A21U A22U G46A G48C U56A G70C G83U G124A, not above -4.2; for A21C C87A G141C, not above -4.2.
The result for A20G U148C reads -1.93; that for A19U A21U A23U G67C G88A U102C A150G, not above -4.2.
The result for A19U A30U C72G C96U A106G A122C G140U reads not above -4.2; that for A21G G59C U102G G124A, -3.04; that for A20U C93U, -1.76.
For A20C U55A G71A C96U, the “polymerase ribozyme fitness (log ratio)” value is -3.43.
The result for A21G A26G C38G C72U C87G A89U A150G reads not above -4.2.
Consider A21C C54U, for which the “polymerase ribozyme fitness (log ratio)” value was -0.0517.
As for A21C C54A, the “polymerase ribozyme fitness (log ratio)” value was 0.0369.
For A20C A24U C57U the value was -0.111.
On to A21G A52G C87U U90G A106G A107G, for which the “polymerase ribozyme fitness (log ratio)” value was not above -4.2.
For A21C C27G G83C A113U G140A the value was not above -4.2; for A20U G84A G124A A147G, -2.53.
As for A19U G68C C85U, the “polymerase ribozyme fitness (log ratio)” value was not above -4.2.
For A19U C57U G81C C93G C125A the value was -3.42; for A19U C95U C99A U145A, -2.13; for A19U A26C A40U C96A A121C, -2.54.
For A20U U55G C96U U134G U144G the value was -3.67; for A19U C93U U148A, -3.95; for A19U U55G G88U U104G, not above -4.2.
For A20G C54U A107U A120G the value was -3.56; for A21C U56G G62C U101G, -3.54.
On to A21G A30G C125U G133C, for which the “polymerase ribozyme fitness (log ratio)” value was not above -4.2.
The result for A21C C87U A89C A98G G112U reads not above -4.2; that for A20U G94A G112A, -3.86.
For A19U U104A the value was -0.0348.
On to A21G C27U C38A C93G U101A U146C, for which the “polymerase ribozyme fitness (log ratio)” value is not above -4.2.
The result for A19U U33G A40C C87U C93U C103A reads not above -4.2; that for A21C A91C U127C, not above -4.2.
Take A20U A22G A52U A73G C85U G124C: the “polymerase ribozyme fitness (log ratio)” value was -3.91.
For A19U G92U A150C the value was -2.67.
The result for A19U U55C C57A A66C C85G U109G reads not above -4.2; that for A20C U44A A49C C96G C103A G141C, not above -4.2; that for A21G A24U G50A C57A C87G C93G A110U A121U, -4.06.
The result for A20U A24C A49C G71A C72A C93U C103G U109C reads not above -4.2; that for A19U C51U A91U G94A G133A A137C, not above -4.2; that for A21G A49C G84A G92U A97U A138G, not above -4.2.
Regarding A21C C54A C95U C114G G136U, the “polymerase ribozyme fitness (log ratio)” value was not above -4.2.
For A20U G84U C108U the value was not above -4.2.
The result for A21C C87A reads -4.15.
For A19U U53A G81U C96A the value was -2.73; for A20G G81C C93U C103A G152A, -3.74.
On to A20G G83U, for which the “polymerase ribozyme fitness (log ratio)” value was -0.993.
For A20U C43U C96U C114U G141C the value was not above -4.2; for A20U C85U, -1.3; for A21G A49U C57G A150G, not above -4.2.
The result for A21C A40C U45A A73G G83U C96A reads not above -4.2.
Regarding A20G A24U C87U A107G, the “polymerase ribozyme fitness (log ratio)” value is not above -4.2.
For A21C G136A the value was 0.615; for A20U G88C, -3.85.
For A20U A73G C85A C93A G141C the value was not above -4.2; for A20U A23U G42A G67A C93U, not above -4.2.
For A20U C27U G46C C95U the value was -3.76.
As to A20G G83U A89G C99U G141A U146A, the “polymerase ribozyme fitness (log ratio)” value was not above -4.2.
For A19U C96U C125G the value was -0.589; for A20G A24U C35U G42C C79A C85G G88U A147G G152A, not above -4.2.
A21C C35A C87U: the “polymerase ribozyme fitness (log ratio)” value is -3.56.
The result for A20G G94A C105G reads -2.04; that for A19U C93U A97U G141C, -2.49; that for A20U A52G, -2.02.
The result for A19U A22G G67U C93A G126A C131A reads not above -4.2.
For A21C A41U C85U C95U the value was -1.34.
For the variant A20C G88A, the “polymerase ribozyme fitness (log ratio)” value is -3.56.
A20C C149G: the “polymerase ribozyme fitness (log ratio)” value is -2.96.
For A21G A22U U53A C85G C132G the value was not above -4.2; for A19U G94A A121U C125G, -0.351; for A19U A40C G94A A107U, not above -4.2.
For A20G C36U C85G, the “polymerase ribozyme fitness (log ratio)” value is -4.17.
The result for A20U A23U A37U C51U C69A C105U reads not above -4.2; that for A20U C32U U77G A142U, not above -4.2; that for A19U U31A A41G C87G G124U, -4.17.
The result for A19U G25U C38G A52C C75U C118G C131A A142U reads not above -4.2; that for A19U A39U U56A, -2.83.
For A20C G50C C54U G58C G62A C103G C125U A142C, the “polymerase ribozyme fitness (log ratio)” value was not above -4.2.
Consider A20U A49G, for which the “polymerase ribozyme fitness (log ratio)” value is -1.2.
The result for A19U A26U reads -2.56.
For A20C G68C G83C A89U U102A G140U the value was not above -4.2; for A21C G59C A98G C125G G136A U146G, -1.19.
The result for A20U G46U A98G C99U reads -3.31; that for A20G G71A C96A, not above -4.2.
A19U C27U A47U G50U C79G C93G G141A U145G: the “polymerase ribozyme fitness (log ratio)” value is not above -4.2.
For A20U G92U U104G the value was -1.82; for A20U C54G G70C C79G G92U A107U, not above -4.2; for A20U C79U, -3.19.
In the case of A20C C54A G84U C116U, the “polymerase ribozyme fitness (log ratio)” value was -3.08.
The result for A20G C54A G68A C87U reads not above -4.2; that for A19U U53A G71C G84A C96U A97U C108G G140U, not above -4.2; that for A19U C96U A120G A121C, -0.837.
The result for A21C G94A U148A reads -3.72; that for A20C, -0.413; that for A20G, -0.287.
The result for A20U reads -1.18; that for A20G C43U U55A C85U C96G A98U A107G, not above -4.2; that for A21G C54A, -0.617.
On to A20G C38U G88C C96A, for which the “polymerase ribozyme fitness (log ratio)” value was not above -4.2.
For A21G U56G G80U G88A C105G A120U C149U the value was not above -4.2; for A21C C85G C114U, -3.13.
As for A19G U102G, the “polymerase ribozyme fitness (log ratio)” value is -3.38.
